Source: patent US10883116B2, “Transduction buffer” (Koninklijke Nederlandse Akademie van Wetenschappen, priority 2013, dated 2021)
Entries after “also recorded” stand apart in the source; their conditions may differ. Values belong to the molecule of their own block, whether it stands above or below them.

Key:
KBM7 cells [1] = type: cell-based; conditions: human, 250 mM
Method: (B) BrdU incorporation rate was determined in KBM7 cells incubated with osmocytosis buffer with NDSB-201 or GABA at different time points. Untreated cells were considering as 100% of BrdU incorporation.
Next we optimized the transduction media to allow the transduction of recombinant Cas9. […] For this reason we developed a “Cas9-adapted transduction protocol” (the “fourth protocol”) with a final osmolality of 1250 mOsmol/Kg and a concentration of 250 mM of NDSB-201 (transduction compound #01) or other transduction compounds selected from the FIGS. 7A-7D. We expected that higher osmolalities and NDSBs will induce faster protein transduction but also could possibly increase the cellular toxicity. To characterize this new transduction conditions we measured BrdU incorporation upon high osmolarity (1250 mOsm/Kg) transduction at different short time points, in KBM7 cells.

[2] = tested on: murine embryonic fibroblasts (MEFs); assay: β-Lactamase protein transduction assay (CCF2-AM), protocol 3/700
Source text: To further characterize the protein transduction process we analyzed the effect of time, osmolality, transduction compound concentration and protein concentration on the transduction process. To this end, we set up a β-Lactamase protein transduction assay and measured intracellular β-Lactamase activity using CCF2-AM, an intracellular fluorescent β-Lactamase substrate that changes emission wavelength when cleaved by the enzyme (FIG. 3A). […] While we used the immortalized COS7 cell line in our initial studies, we wanted to know if the compound-mediated protein transduction would also allow the transduction of protein into primary cells. We therefore transduced murine embryonic fibroblasts (MEFs) with β-Lactamase (1 μM final concentration), using NaCl-adjusted hypertonic media (700 mOsm/Kg) and 25 mM NDSB201. β-Lactamase activity was set at 1 at the start of the experiment and relative intracellular β-Lactamase activity was measured as a function of time (FIG. 3B, bars). As a control, β-Lactamase transduction was measured in isotonic media in the presence of 25 mM NSDB201 (FIG. 3B, open circles).
β-lactamase transduction was performed using the 3/700 protocol above in murine embryonic fibroblasts (MEFs). A black, clear-bottom 96 well-plate was coated with 0.15 mg/ml of Poly-D-Lysine for 1 h at room temperature. 12,000 MEFs cells were seeded per well in MEF media without antibiotics. Next day, cells were transduced using the transduction protocol 3/700 as describe above. […] Na- or Rb-salt was added to adjust the final tonicity to 700 mOsm/Kg. […] After 3 hrs., the transduction media was replaced by fresh MEF media for 30 min. Subsequently, cells were washed once with phenol-red-free DMEM. β-lactamase activity was measured using the CCF2-AM kit following the manufacturer's instructions. In brief, 120 μl of CCF2-AM loading media was added per well and cells were incubated for 1 h at room temperature. Cells were washed two times with DMEM phenol-red free and incubated for an additional 30-60 min. Fluorescence emission was measured at […] and 510 nm following manufacturer's instructions. All tests were done in triplicate.

KBM7 cells [3] = assay: CRE recombinase reporter in KBM7 cells, Cas9-adapted transduction buffer; type: cell-based, human; conditions: 1250 mOsmol/Kg, 250 mM GABA
Method: (C) Top panel. Schematic depiction of the CRE recombinase reporter. […] Untransduced cells express Red fluorescent protein. […] Bottom panel. KBM7 cells transduced with CRE protein with osmocytosis media at 1250 mOsmol/Kg with 250 mM GABA (compound #20) during 60 minutes. Upper panels represent fluorescent pictures in green and red channel. Bottom panels represent FACS plots showing in x axes green fluorescence and in y axes red fluorescence or frequency of events. Percentages of events are depicted in the corresponding area.
To further test the duration of the transduction with the modified transduction buffer, we performed a Cre recombinase protein transduction at 1250 mOsmol/Kg and 250 mM GABA at different time points and measured the percentage of cells with successful cre-mediated reporter activation as well as BrdU incorporation as a measure of cell proliferation and survival. Under these conditions, the optimal transduction time based on cell survival and Cre transduction was around 60 minutes. At those time points, one round of Cre protein transduction gave an 80% of GFP positive KBM7 cells. And two subsequent rounds of Cre protein transduction yielded 94% positive KBM7 (FIG. 19C). A second round of protein transduction didn't affect cell survival rate.

[4] = tested on: GFP-expressing murine embryonic fibroblasts (MEFs); assay: Macropinocytosis mediated uptake of TMR-dextran and BSA, confocal microscopy; type: cell-based; conditions: 100 μM EIPA 30 min before and during transduction
Method: To assess if the transduction buffer would permit the simultaneous transduction of proteins and large molecules, we analyzed macropinocytosis mediated uptake of TMR-dextran (red) and fluorescently labeled BSA protein (cyan) by GFP-expressing murine embryonic fibroblasts (MEFs). In brief, MEFs expressing eGFP protein (green) were incubated with 5 μg/ml of high molecular weight TMR-Dextran (red) and 1 μg of BSA-Alexa-647 (far-red) in 1× transduction media (protocol 700/3) for 30 min. Subsequently, cells were washed twice in 1× transduction buffer. Finally, cells were maintained in 1× transduction buffer and immediately analyzed by confocal microscopy. Dextran and BSA uptake was inhibited by incubating cells with 100 μM Ethylisopropylamiloride (EIPA) 30 min before and during transduction procedure.

[5] = tested on: MEFs cells expressing GAL3-GFP protein; assay: GAL3-GFP macropinosome vesicle leakage reporter assay; conditions: 700/3 conditions
murine ESCs = assay: ESC proliferation by cell counting after CRE transduction; type: cell-based; conditions: with or without Tat-HA2 fusion peptide
Source text: Top & bottom graph. After 2 days, transduced (white circle) or untransduced (grey bars) cells were counted every day to make cell proliferation curves.
Untransduced cells were used as a control.

[6] = tested on: human induced pluripotent stem cells (iPSCs); assay: CRE recombinase dsRed-to-eGFP reporter, flow cytometry
murine neurospheres = assay: CRE reporter in murine neurospheres; type: cell-based; conditions: CRE protein transduction, protocol 12/500
Source text: (§1) A similar strategy of CRE-recombinase mediated red-to-green reporter shift as described above, was utilized to assess the transduction of murine and human neurons, glia and neural stem cells. FIG. 10A depicts a schematic representation of the assay. […] Since the fluorescent reporter construct was introduced into the iPSC-derived glial cells and neurons using lentiviral infection, cells likely incorporated multiple copies of this reporter.
Neurospheres were transferred to a 96 well plate with 80 μl of the neuronal stem cells media. Right after, 20 μl of CRE in 5× Transduction buffer was added to cell and mixed carefully.

[7] = tested on: murine embryonic stem cells (mESCs); assay: CRE recombinase Lox-Stop-Lox-eGFP reporter, flow cytometry
[8] = tested on: human iPSC-derived glial cells and neurons; assay: CRE reporter in human iPSC-derived glial cells and neurons; type: cell-based; conditions: 5 μM CRE
Source text: as §1

β-lactamase transduction activity when combined with reference compound #01 (reference set at 100%) ([2]; equimolar with NDSB201 (#01), 12.5 mM each, total 25 mM, 3 hours, 700 mOsm/Kg): largely unchanged
Molecule: NCCCC(=O)O [Compound #20, gamma-aminobutyric acid]
cell survival (BrdU incorporation) in KBM7 (KBM7 cells [1]): much better survival than NDSB-201
optimal transduction time based on cell survival and Cre transduction (KBM7 cells [3]): around 60 minutes

effect on protein transduction in the presence of FGF and PDGF ([2]; 700 mOsm/Kg, 25 mM NDSB201): completely blocked protein transduction
Molecule: CCN(c1nc(N)c(C(=O)N=C(N)N)nc1Cl)C(C)C [EIPA, 5-(N-ethyl N-isopropyl)-amiloride, reference compound]
effect on Dextran and BSA transduction [4]: inhibited
effect of endocytic pathway inhibitor on protein transduction ([2]; 3 hours, 1 μM β-lactamase, 700 mOsm/Kg NaCl, 25 mM NDSB201): strongly inhibited; also recorded: completely inhibits protein transduction
Gal3-GFP localisation to macropinocytic vesicles (vesicle leakage) [5]: did not relocalize to vesicles

B1: CRE protein: recombinant CRE recombinase protein (protein, UniProt P06956 1-343, looked up)
Recombinase cre: MSNLLTVHQNLPALPVDATSDEVRKNLMDMFRDRQAFSEHTWKMLLSVCRSWAAWCKLNNRKWFPAEPEDVRDYLLYLQARGLAVKTIQQHLGQLNMLHRRSGLPRPSDSNAVSLVMRRIRKENVDAGERAKQALAFERTDFDQVRSLMENSDRCQDIRNLAFLGIAYNTLLRIAEIARIRVKDISRTDGGRMLIHIGRTKTLVSTAGVEKALSLGVTKLVERWISVSGVADDPNNYLFCRVRKNGVAAPSATSQLSTRALEGIFEATHRLIYGAKDDSGQRYLAWSGHSARVGAARDMARAGVSIPEIMQAGGWTNVNIVMNYIRNLDSETGAMVRLLEDGD
ESC proliferation after two rounds of CRE protein transduction (murine ESCs): did not affect ESC proliferation
cells shifted to eGFP expression ([6]; 5 μM CRE protein, 12 hours at 500 mOsm/Kg, single transduction): 64%
eGFP cells ([6]; double CRE protein transduction, without Tat-HA2 fusion peptide): 78%
GFP positive KBM7 cells (KBM7 cells [3]; one round, around 60 minutes): 80%
positive KBM7 (KBM7 cells [3]; two subsequent rounds): 94%
eGFP reporter activation (murine neurospheres): efficient activation of the eGFP reporter
GFP+ ESCs ([7]; 5 μM CRE, two sequential rounds, 12 hrs each at 500 mOsm/Kg with glycerol and glycine): 79%
GFP-positive mESCs ([7]; Okada method (hypertonic/hypotonic), 5 μM CRE-recombinase protein): 6%
eGFP reporter activation [8]: efficient activation of the eGFP reporter
